How the values were obtained:
E. coli = experiment: 1-undecene production in E. coli overexpressing PFL_4321, PFL_0203 or homologs, with or without UcFatB2; type: cell-based; conditions: E. coli, one-day shake flask culture in LB media without exogenous lauric acid
Procedure: E. coli, P. aeruginosa PAO-1, and P. aeruginosa PA14 strains were grown in 5 mL of LB medium overnight at 37° C., while all the other Pseudomonas and Acinetobacter strains were grown at 30° C. […] The culture was shaken in a sealed 20 mL headspace vial (Agilent certified) containing a stir bar at 30° C. for 36 hr. After incubation, an SPME fiber (30 μm polydimethylsiloxane, Supelco, Sigma-Aldrich Group, Bellefonte, Pa.) was manually inserted into the headspace vial and incubated at 25° C. for 12.5 min. GC-MS analysis was conducted on a Varian CP-3800 instrument equipped with a Varian 320-MS. […] The signals of the 1-alkenes were identified and quantified by comparison with authentic samples (MP Biomedicals), which were diluted in ethyl acetate, added to 5 mL of culture medium in a sealed headspace vial, and sampled by the same SPME-GCMS method as described above.
[…] 1-Undecene production was detected by using the SPME-GCMS method. […]
To investigate whether PFL_0203 was facilitating the production of 1-undecene, this gene was individually expressed in E. coli and the cells were monitored for 1-undecene production. […]

[1] = In vitro activity of PFL_4321 and PFL_0203 toward fatty acids with various chain lengths; type: biochemical; parameters: key to In vitro activity toward C8:0 / In vitro activity toward C10:0 / In vitro activity toward C12:0 / In vitro activity toward C14:0 / In vitro activity toward C16:0: ✓: indicates production of the corresponding 1-alkene from the indicated substrate; x: indicates failure to produce the corresponding 1-alkene from the indicated substrate
Procedure: A typical condition is as follows: 1 mL of reaction mixture contains 50 mM MES buffer (pH 6.2), 300 mM NaCl, 100 μM (NH4)2Fe(SO4)2, 1 mM ascorbic acid, 100 μM fatty acid substrate or analogs, and 10 μM enzyme. The reaction was performed in a sealed headspace vial at 30° C., initiated by adding lauric acid and quenched by injecting equal volume of 5 M NaOH. 1-Undecene production was analyzed and quantified by using the SPME-GCMS method. To determine the kinetic parameters of PFL_4321 on lauric acid, initial velocities at 1, 10, 20, 50, 100, and 150 μM of lauric acid were measured (25 mM lauric acid solution was prepared by adding 0.5% tergitol and heating at 65° C. for 10 min). The reactions were quenched at 2, 4, 6, 8, and 10 seconds, and the acquired turnover rates were fit to the Michaelis-Menten equation using GraphPad Prism to obtain kcat and Km. The kcat and Km of myristic acid and capric acid were determined similarly.
Unless otherwise noted, all experiments with PFL_0203 as described herein were performed using similar assays, procedures, and techniques as used in a given corresponding experiment as described in Example 1.
The fatty acid substrate specificity of PFL_0203 was investigated in a series of in vitro experiments. […] Thus, PFL_4321 and PFL_0203 share some overlap in suitable substrates; PFL_4321 is able to act on C10-C14 fatty acid substrates, and PFL_0203 is able to act on C10-C16 fatty acid substrates.

[2] = In vitro 1-undecene production by purified PFL_0203 with E. coli crude extract; type: biochemical; conditions: purified PFL_0203 mixed with E. coli crude extract and exogenous lauric acid

B1: PFL_0203: hypothetical membrane-associated protein from Pseudomonas fluorescens Pf-5 converting C10-C16 fatty acids into 1-alkenes (protein, listed as Pseudomonas protegens)
chain: MQGISASPERMNAQQRAAHVRQVVLARGDELRRRFPLLRHQDALGAGILAFALSGMLGSALLYVTGHLAWWACLLLNAFFASLTHELEHDLIHSMYFRKQRLPHNLMLGLVWLARPSTINPWVRRHLHLNHHKVSGSESDIEERAITNGEPWGIARLLMVGDNMMAAFIRLLRAPGARRKLGILVRTLAVYAPLALLHWGAWYVFLGFHGANGVAALLGSPIQWSQDTASLMHYVDIAVVVIIGPNVLRTFCLHFVSSNMHYYGDIEPGNVIQQTQVLNPWWMWPLQAFCCNFGSTHGIHHFVVREPFYIRQMTASVAHKVMAEMGVRFNDFGTFARANRFTRQEREAMQPAHNARA
titer of 1-undecene (E. coli): ~0.2 µg/mL | activity on C8 or C18 fatty acids ([1]; in vitro, C8 or C18 fatty acids): failed to act | conversion of C10-C16 fatty acids into their corresponding [M-1] 1-alkenes ([1]; in vitro, C10-C16 fatty acids): converted | In vitro activity toward C8:0 ([1]; substrate C8:0): x | In vitro activity toward C10:0 ([1]; substrate C10:0): trace | In vitro activity toward C12:0 ([1]; substrate C12:0): ✓ | In vitro activity toward C14:0 ([1]; substrate C14:0): ✓ | In vitro activity toward C16:0 ([1]; substrate C16:0): trace | 1-undecene production [2]: resulted in 1-undecene production

— patent US10000775B2, “Biosynthesis of 1-undecene and related terminal olefins” (The Regents of the University of California, priority 2013, dated 2018)
